Legend:
[1] = target: LEDGF IBD fused to Gal4 transcription activation domain (WT prey); experiment: yeast two-hybrid (β-galactosidase reporter); conditions: S. cerevisiae Y187; quadruplicate measurements; read off a plot
[2] = target: Full-length HIV-1 IN fused to the DNA binding domain of Gal4 (WT bait) (HIV-1); experiment: two-hybrid
[3] = target: KKK HIV-1 IN (D6K/E10K/E13K) fused to the DNA binding domain of Gal4 (HIV-1); experiment: two-hybrid; Gal4 DBD-IN bait and Gal4 AD-LEDGF IBD prey in S. cerevisiae Y187; β-galactosidase activity relative to WT bait/WT prey (100%); background: WT IN with empty prey vector

Substance	percent of parent [1]	also measured
Full-length HIV-1 IN fused to the DNA binding domain of Gal4 (WT bait) E10K; E13K	1.3 % of WT/WT	
AAA LEDGF IBD (K401A/K402A/R405A) fused to Gal4 transcription activation domain (domain or fragment)		binding relative to WT (β-galactosidase activity) [2]: 5 % of WT
EEE LEDGF IBD (K401E/K402E/R405E) fused to Gal4 transcription activation domain (domain or fragment)		β-galactosidase activity relative to WT-WT [3]: 40 % of WT-WT
Full-length HIV-1 IN fused to the DNA binding domain of Gal4 (WT bait) D6K; E10K; E13K	1.2 % of WT/WT	
